{
  "source": "paper PMC8629192",
  "biological_target": "SARS-CoV-2 spike protein (Wuhan-Hu-1), recombinant full-length spike with C-terminal histidine (SARS-CoV-2) (UniProt P0DTC2)",
  "experiment": "ELISA",
  "data": [
    {"substance": "LRRC15-Fc (from UniProt Q8TF66) (Fc fusion)", "values": [
      {"measurement": "Kd", "result": 109, "unit": "nM"}
    ]}
  ]
}
